biological target: T1, CD3 epsilon homodimer protein (UniProt P07766 23-126); assay: SPR Biacore T200, antibody over immobilised CD3e homodimer;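 further: CD3 epsilon homodimer amine-coupled on a CM4 chip, run at 25 °C in HBS-EP+, Z = bound amount of each single-residue H chain variant over that of the parent antibody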
T1 construct: also called CD3 (CD3 epsilon)
T1 sequence (P07766 23-126): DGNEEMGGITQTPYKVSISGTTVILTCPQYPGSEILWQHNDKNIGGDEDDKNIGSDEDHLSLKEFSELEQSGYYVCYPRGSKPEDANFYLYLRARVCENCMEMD

Binder	ratio of amounts bound (Z=Y/X vs CE115HA000)
CE115HA000 N53D one-arm antibody (antibody, human IgG1, kappa, L234A L235A, N297A, name in Kabat numbering, one-arm antibody) heavy: QVQLVESGGGVVQPGRSLRLSCAASGFTFSNAWMHWVRQAPGKGLEWVAQIKAKSDNYATYYAESVKGRFTISRDDSKNSLYLQMNSLKTEDTAVYYCRYVHYGAYYGVDAWGQGTTVTVSSASTKGPSVFPLAPSSKSTSGGTAALGCLVKDYFPEPVTVSWNSGALTSGVHTFPAVLQSSGLYSLSSVVTVPSSSLGTQTYICNVNHKPSNTKVDKKVEPKSCDKTHTCPPCPAPEAAGGPSVFLFPPKPKDTLMISRTPEVTCVVVDVSHEDPEVKFNWYVDGVEVHNAKTKPREEQYASTYRVVSVLTVLHQDWLNGKEYKCKVSNKALPAPIEKTISKAKGQPREPQVYTLPPSRCELTKNQVSLSCAVKGFYPSDIAVEWESNGQPENNYKTTPPVLDSDGSFFLVSKLTVDKSRWQQGNVFSCSVMHEALHNHYTQKSLSLSPDYKDDDDK EPKSSDKTHTCPPCPAPELLGGPSVFLFPPKPKDTLMISRTPEVTCVVVDVSHEDPEVKFNWYVDGVEVHNAKTKPREEQYNSTYRVVSVLTVLHQDWLNGKEYKCKVSNKALPAPIEKTISKAKGQPREPQVCTLPPSRDELTKNQVSLWCLVKGFYPSDIAVEWESNGQPENNYKTTPPVLDSDGSFFLYSKLTVDKSRWQQGNVFSCSVMHEALHNRYTQKSLSLSP light: DIVMTQSPLSLPVTPGEPASISCRSSQSLVHSNRNTYLHWYQQKPGQAPRLLIYKVSNRFSGVPDRFSGSGSGTDFTLKISRVEAEDVGVYYCGQGTQVPYTFGQGTKLEIKRTVAAPSVFIFPPSDEQLKSGTASVVCLLNNFYPREAKVQWKVDNALQSGNSQESVTEQDSKDSTYSLSSTLTLSKADYEKHKVYACEVTHQGLSSPVTKSFNRGEC	0.39
CE115HA000 N53G one-arm antibody (antibody, human IgG1, kappa, L234A L235A, N297A, name in Kabat numbering, one-arm antibody) heavy: QVQLVESGGGVVQPGRSLRLSCAASGFTFSNAWMHWVRQAPGKGLEWVAQIKAKSGNYATYYAESVKGRFTISRDDSKNSLYLQMNSLKTEDTAVYYCRYVHYGAYYGVDAWGQGTTVTVSSASTKGPSVFPLAPSSKSTSGGTAALGCLVKDYFPEPVTVSWNSGALTSGVHTFPAVLQSSGLYSLSSVVTVPSSSLGTQTYICNVNHKPSNTKVDKKVEPKSCDKTHTCPPCPAPEAAGGPSVFLFPPKPKDTLMISRTPEVTCVVVDVSHEDPEVKFNWYVDGVEVHNAKTKPREEQYASTYRVVSVLTVLHQDWLNGKEYKCKVSNKALPAPIEKTISKAKGQPREPQVYTLPPSRCELTKNQVSLSCAVKGFYPSDIAVEWESNGQPENNYKTTPPVLDSDGSFFLVSKLTVDKSRWQQGNVFSCSVMHEALHNHYTQKSLSLSPDYKDDDDK EPKSSDKTHTCPPCPAPELLGGPSVFLFPPKPKDTLMISRTPEVTCVVVDVSHEDPEVKFNWYVDGVEVHNAKTKPREEQYNSTYRVVSVLTVLHQDWLNGKEYKCKVSNKALPAPIEKTISKAKGQPREPQVCTLPPSRDELTKNQVSLWCLVKGFYPSDIAVEWESNGQPENNYKTTPPVLDSDGSFFLYSKLTVDKSRWQQGNVFSCSVMHEALHNRYTQKSLSLSP light: DIVMTQSPLSLPVTPGEPASISCRSSQSLVHSNRNTYLHWYQQKPGQAPRLLIYKVSNRFSGVPDRFSGSGSGTDFTLKISRVEAEDVGVYYCGQGTQVPYTFGQGTKLEIKRTVAAPSVFIFPPSDEQLKSGTASVVCLLNNFYPREAKVQWKVDNALQSGNSQESVTEQDSKDSTYSLSSTLTLSKADYEKHKVYACEVTHQGLSSPVTKSFNRGEC	0.5
CE115HA000 N53H one-arm antibody (antibody, human IgG1, kappa, L234A L235A, N297A, name in Kabat numbering, one-arm antibody) heavy: QVQLVESGGGVVQPGRSLRLSCAASGFTFSNAWMHWVRQAPGKGLEWVAQIKAKSHNYATYYAESVKGRFTISRDDSKNSLYLQMNSLKTEDTAVYYCRYVHYGAYYGVDAWGQGTTVTVSSASTKGPSVFPLAPSSKSTSGGTAALGCLVKDYFPEPVTVSWNSGALTSGVHTFPAVLQSSGLYSLSSVVTVPSSSLGTQTYICNVNHKPSNTKVDKKVEPKSCDKTHTCPPCPAPEAAGGPSVFLFPPKPKDTLMISRTPEVTCVVVDVSHEDPEVKFNWYVDGVEVHNAKTKPREEQYASTYRVVSVLTVLHQDWLNGKEYKCKVSNKALPAPIEKTISKAKGQPREPQVYTLPPSRCELTKNQVSLSCAVKGFYPSDIAVEWESNGQPENNYKTTPPVLDSDGSFFLVSKLTVDKSRWQQGNVFSCSVMHEALHNHYTQKSLSLSPDYKDDDDK EPKSSDKTHTCPPCPAPELLGGPSVFLFPPKPKDTLMISRTPEVTCVVVDVSHEDPEVKFNWYVDGVEVHNAKTKPREEQYNSTYRVVSVLTVLHQDWLNGKEYKCKVSNKALPAPIEKTISKAKGQPREPQVCTLPPSRDELTKNQVSLWCLVKGFYPSDIAVEWESNGQPENNYKTTPPVLDSDGSFFLYSKLTVDKSRWQQGNVFSCSVMHEALHNRYTQKSLSLSP light: DIVMTQSPLSLPVTPGEPASISCRSSQSLVHSNRNTYLHWYQQKPGQAPRLLIYKVSNRFSGVPDRFSGSGSGTDFTLKISRVEAEDVGVYYCGQGTQVPYTFGQGTKLEIKRTVAAPSVFIFPPSDEQLKSGTASVVCLLNNFYPREAKVQWKVDNALQSGNSQESVTEQDSKDSTYSLSSTLTLSKADYEKHKVYACEVTHQGLSSPVTKSFNRGEC	0.76
CE115HA000 N53I one-arm antibody (antibody, human IgG1, kappa, L234A L235A, N297A, name in Kabat numbering, one-arm antibody) heavy: QVQLVESGGGVVQPGRSLRLSCAASGFTFSNAWMHWVRQAPGKGLEWVAQIKAKSINYATYYAESVKGRFTISRDDSKNSLYLQMNSLKTEDTAVYYCRYVHYGAYYGVDAWGQGTTVTVSSASTKGPSVFPLAPSSKSTSGGTAALGCLVKDYFPEPVTVSWNSGALTSGVHTFPAVLQSSGLYSLSSVVTVPSSSLGTQTYICNVNHKPSNTKVDKKVEPKSCDKTHTCPPCPAPEAAGGPSVFLFPPKPKDTLMISRTPEVTCVVVDVSHEDPEVKFNWYVDGVEVHNAKTKPREEQYASTYRVVSVLTVLHQDWLNGKEYKCKVSNKALPAPIEKTISKAKGQPREPQVYTLPPSRCELTKNQVSLSCAVKGFYPSDIAVEWESNGQPENNYKTTPPVLDSDGSFFLVSKLTVDKSRWQQGNVFSCSVMHEALHNHYTQKSLSLSPDYKDDDDK EPKSSDKTHTCPPCPAPELLGGPSVFLFPPKPKDTLMISRTPEVTCVVVDVSHEDPEVKFNWYVDGVEVHNAKTKPREEQYNSTYRVVSVLTVLHQDWLNGKEYKCKVSNKALPAPIEKTISKAKGQPREPQVCTLPPSRDELTKNQVSLWCLVKGFYPSDIAVEWESNGQPENNYKTTPPVLDSDGSFFLYSKLTVDKSRWQQGNVFSCSVMHEALHNRYTQKSLSLSP light: DIVMTQSPLSLPVTPGEPASISCRSSQSLVHSNRNTYLHWYQQKPGQAPRLLIYKVSNRFSGVPDRFSGSGSGTDFTLKISRVEAEDVGVYYCGQGTQVPYTFGQGTKLEIKRTVAAPSVFIFPPSDEQLKSGTASVVCLLNNFYPREAKVQWKVDNALQSGNSQESVTEQDSKDSTYSLSSTLTLSKADYEKHKVYACEVTHQGLSSPVTKSFNRGEC	0.68
CE115HA000 N53K one-arm antibody (antibody, human IgG1, kappa, L234A L235A, N297A, name in Kabat numbering, one-arm antibody) heavy: QVQLVESGGGVVQPGRSLRLSCAASGFTFSNAWMHWVRQAPGKGLEWVAQIKAKSKNYATYYAESVKGRFTISRDDSKNSLYLQMNSLKTEDTAVYYCRYVHYGAYYGVDAWGQGTTVTVSSASTKGPSVFPLAPSSKSTSGGTAALGCLVKDYFPEPVTVSWNSGALTSGVHTFPAVLQSSGLYSLSSVVTVPSSSLGTQTYICNVNHKPSNTKVDKKVEPKSCDKTHTCPPCPAPEAAGGPSVFLFPPKPKDTLMISRTPEVTCVVVDVSHEDPEVKFNWYVDGVEVHNAKTKPREEQYASTYRVVSVLTVLHQDWLNGKEYKCKVSNKALPAPIEKTISKAKGQPREPQVYTLPPSRCELTKNQVSLSCAVKGFYPSDIAVEWESNGQPENNYKTTPPVLDSDGSFFLVSKLTVDKSRWQQGNVFSCSVMHEALHNHYTQKSLSLSPDYKDDDDK EPKSSDKTHTCPPCPAPELLGGPSVFLFPPKPKDTLMISRTPEVTCVVVDVSHEDPEVKFNWYVDGVEVHNAKTKPREEQYNSTYRVVSVLTVLHQDWLNGKEYKCKVSNKALPAPIEKTISKAKGQPREPQVCTLPPSRDELTKNQVSLWCLVKGFYPSDIAVEWESNGQPENNYKTTPPVLDSDGSFFLYSKLTVDKSRWQQGNVFSCSVMHEALHNRYTQKSLSLSP light: DIVMTQSPLSLPVTPGEPASISCRSSQSLVHSNRNTYLHWYQQKPGQAPRLLIYKVSNRFSGVPDRFSGSGSGTDFTLKISRVEAEDVGVYYCGQGTQVPYTFGQGTKLEIKRTVAAPSVFIFPPSDEQLKSGTASVVCLLNNFYPREAKVQWKVDNALQSGNSQESVTEQDSKDSTYSLSSTLTLSKADYEKHKVYACEVTHQGLSSPVTKSFNRGEC	0.78
CE115HA000 N54A one-arm antibody (antibody, human IgG1, kappa, L234A L235A, N297A, name in Kabat numbering, one-arm antibody) heavy: QVQLVESGGGVVQPGRSLRLSCAASGFTFSNAWMHWVRQAPGKGLEWVAQIKAKSNAYATYYAESVKGRFTISRDDSKNSLYLQMNSLKTEDTAVYYCRYVHYGAYYGVDAWGQGTTVTVSSASTKGPSVFPLAPSSKSTSGGTAALGCLVKDYFPEPVTVSWNSGALTSGVHTFPAVLQSSGLYSLSSVVTVPSSSLGTQTYICNVNHKPSNTKVDKKVEPKSCDKTHTCPPCPAPEAAGGPSVFLFPPKPKDTLMISRTPEVTCVVVDVSHEDPEVKFNWYVDGVEVHNAKTKPREEQYASTYRVVSVLTVLHQDWLNGKEYKCKVSNKALPAPIEKTISKAKGQPREPQVYTLPPSRCELTKNQVSLSCAVKGFYPSDIAVEWESNGQPENNYKTTPPVLDSDGSFFLVSKLTVDKSRWQQGNVFSCSVMHEALHNHYTQKSLSLSPDYKDDDDK EPKSSDKTHTCPPCPAPELLGGPSVFLFPPKPKDTLMISRTPEVTCVVVDVSHEDPEVKFNWYVDGVEVHNAKTKPREEQYNSTYRVVSVLTVLHQDWLNGKEYKCKVSNKALPAPIEKTISKAKGQPREPQVCTLPPSRDELTKNQVSLWCLVKGFYPSDIAVEWESNGQPENNYKTTPPVLDSDGSFFLYSKLTVDKSRWQQGNVFSCSVMHEALHNRYTQKSLSLSP light: DIVMTQSPLSLPVTPGEPASISCRSSQSLVHSNRNTYLHWYQQKPGQAPRLLIYKVSNRFSGVPDRFSGSGSGTDFTLKISRVEAEDVGVYYCGQGTQVPYTFGQGTKLEIKRTVAAPSVFIFPPSDEQLKSGTASVVCLLNNFYPREAKVQWKVDNALQSGNSQESVTEQDSKDSTYSLSSTLTLSKADYEKHKVYACEVTHQGLSSPVTKSFNRGEC	0.85

From patent US20240270846A1 (published 2024)
